Like-named read-outs stand apart in the source and are kept apart here.
Key:
Human HER3 ECD domain II [1] = biological target: T1, Human HER3 ECD domain II (human, UniProt P21860 184-329); assay: DELFIA, plate coated with HER3 Domain II 1ug/ml
T1 construct: also called D2; Domain 2
Protocol: (§1) Dissociation Enhanced Lanthanide Fluorescence Immunoassay (DELFIA) for detection of the anti-HER3 antibodies to HER3 extracellular domain (ECD) was used. The DELFIA procedures were as follows: white Maxisorp 96-well plates (Nunc #437796) were coated with 100 ul/well of 1 ug/ml HER-3 ECD full length or HER3Domain I, II, III and IV in 0.1M carbonate buffer pH 9.5 overnight at 4° C. These plates were blocked with casein in TBS (Thermo Scientific #37532 lot#JD121074). The neat hybridoma supernatant, or the purified anti-HER3 antibodies diluted in Perkin Elmer #4002-0010 Assay Buffer from 10 ug/ml (or 100 ug/ml) to 0.01 ug/ml, or the PK serum samples with a minimum of 3 dilutions (100 ul/well) were added to the plate. These samples were incubated for 2 hours at room temperature while on a plate shaker or overnight at 4° C. […] The plate was washed 4 times with tris-buffer plus 0.05% tween-20 (Perkin Elmer #4010-0010) on a BIOTEK™ plate washer following each antibody incubation step. 100 ul/well of DELFIA enhancement solution (Perkin Elmer 1244-105) was added for 5 minutes at room temperature. […] Antibody binding was recorded as europium counts per well.

[2] = biological target: T2, Full-length human HER3 extracellular domain (ECD) (human, UniProt P21860 20-643); assay: DELFIA (europium time-resolved fluorescence), plate coated with HER3 ECD Full Length 1ug/ml, antibody titrated 0.001-10 ug/ml
T2 construct: also called human HER3 ECD; HER-3 ECD full length
T2 sequence (P21860 20-643): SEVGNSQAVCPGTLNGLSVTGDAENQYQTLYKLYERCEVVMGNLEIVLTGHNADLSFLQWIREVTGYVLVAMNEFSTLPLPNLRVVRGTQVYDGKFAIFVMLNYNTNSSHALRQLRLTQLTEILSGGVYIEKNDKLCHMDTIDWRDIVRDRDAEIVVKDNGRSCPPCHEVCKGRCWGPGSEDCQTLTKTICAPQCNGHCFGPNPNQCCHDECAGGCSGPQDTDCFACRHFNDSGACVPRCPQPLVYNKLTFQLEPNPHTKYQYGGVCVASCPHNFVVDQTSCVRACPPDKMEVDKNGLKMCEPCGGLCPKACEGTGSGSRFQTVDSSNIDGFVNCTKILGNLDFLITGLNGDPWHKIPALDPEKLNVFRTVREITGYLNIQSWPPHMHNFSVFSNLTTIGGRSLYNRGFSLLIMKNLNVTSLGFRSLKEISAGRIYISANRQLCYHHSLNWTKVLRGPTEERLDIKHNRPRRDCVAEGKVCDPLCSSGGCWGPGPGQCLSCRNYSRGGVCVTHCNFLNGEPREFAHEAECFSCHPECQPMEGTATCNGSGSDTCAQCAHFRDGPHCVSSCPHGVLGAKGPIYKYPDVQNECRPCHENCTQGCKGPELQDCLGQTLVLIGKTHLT
Protocol: as §1

[3] = biological target: T3, Full-length rat HER3 extracellular domain (ECD) (rat, UniProt Q62799 20-643); assay: BIACORE SPR, mAb captured on protein A, ECD as analyte, 25 C
T3 construct: extracellular domain; also called Rat HER3 ECD
T3 sequence (Q62799 20-643): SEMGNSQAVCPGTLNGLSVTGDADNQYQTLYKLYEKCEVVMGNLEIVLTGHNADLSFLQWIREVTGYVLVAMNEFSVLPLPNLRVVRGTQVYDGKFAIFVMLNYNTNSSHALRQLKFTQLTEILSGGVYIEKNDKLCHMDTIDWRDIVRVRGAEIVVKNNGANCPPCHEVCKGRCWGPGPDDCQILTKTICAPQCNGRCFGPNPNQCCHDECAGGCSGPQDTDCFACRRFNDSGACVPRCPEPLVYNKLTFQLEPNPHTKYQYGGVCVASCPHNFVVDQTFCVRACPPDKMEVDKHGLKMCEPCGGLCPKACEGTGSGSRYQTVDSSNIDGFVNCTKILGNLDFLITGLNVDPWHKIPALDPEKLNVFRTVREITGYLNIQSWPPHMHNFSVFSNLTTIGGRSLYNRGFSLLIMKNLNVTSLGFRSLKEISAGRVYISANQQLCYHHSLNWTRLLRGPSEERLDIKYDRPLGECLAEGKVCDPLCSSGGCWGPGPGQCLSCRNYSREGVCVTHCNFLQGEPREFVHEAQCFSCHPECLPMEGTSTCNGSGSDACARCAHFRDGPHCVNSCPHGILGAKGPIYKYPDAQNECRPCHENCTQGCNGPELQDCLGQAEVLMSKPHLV
Protocol: (§2) Protein A was immobilised on a CM5 chip by primary amine coupling to a level of ˜1300 resonance units (RU′s), humanized antibodies were then captured on this chip, All antibodies were captured to a similar level (100-200 RU's). […] Alternatively, the full-length, rat HER3 ECD or the full-length cynomolgus monkey ECD were passed over the chip at 10 nM, 5 nM, 2.5 nM, 1:25nM, 0.625 nM and 0.3125nM. An injection of buffer alone was used to double reference the binding curves as indicated in Example 1. Regeneration of this surface was achieved using 10 mM Glycine buffer pH 1.5. The binding data was fitted to the 1:1 model using BIACORE™ Evaluation software. Runs were carried out at 25° C. on a BIACORE™ T3000 using HBS-EP as running buffer.

[4] = biological target: T2, Full-length human HER3 extracellular …; assay: as above
Protocol: as §2

Human HER3 receptor [5] = biological target: T4, Human HER3 receptor (human, UniProt P21860 20-1342); assay: cell-based or functional assay
T4 sequence (P21860 20-1342 limits assumed): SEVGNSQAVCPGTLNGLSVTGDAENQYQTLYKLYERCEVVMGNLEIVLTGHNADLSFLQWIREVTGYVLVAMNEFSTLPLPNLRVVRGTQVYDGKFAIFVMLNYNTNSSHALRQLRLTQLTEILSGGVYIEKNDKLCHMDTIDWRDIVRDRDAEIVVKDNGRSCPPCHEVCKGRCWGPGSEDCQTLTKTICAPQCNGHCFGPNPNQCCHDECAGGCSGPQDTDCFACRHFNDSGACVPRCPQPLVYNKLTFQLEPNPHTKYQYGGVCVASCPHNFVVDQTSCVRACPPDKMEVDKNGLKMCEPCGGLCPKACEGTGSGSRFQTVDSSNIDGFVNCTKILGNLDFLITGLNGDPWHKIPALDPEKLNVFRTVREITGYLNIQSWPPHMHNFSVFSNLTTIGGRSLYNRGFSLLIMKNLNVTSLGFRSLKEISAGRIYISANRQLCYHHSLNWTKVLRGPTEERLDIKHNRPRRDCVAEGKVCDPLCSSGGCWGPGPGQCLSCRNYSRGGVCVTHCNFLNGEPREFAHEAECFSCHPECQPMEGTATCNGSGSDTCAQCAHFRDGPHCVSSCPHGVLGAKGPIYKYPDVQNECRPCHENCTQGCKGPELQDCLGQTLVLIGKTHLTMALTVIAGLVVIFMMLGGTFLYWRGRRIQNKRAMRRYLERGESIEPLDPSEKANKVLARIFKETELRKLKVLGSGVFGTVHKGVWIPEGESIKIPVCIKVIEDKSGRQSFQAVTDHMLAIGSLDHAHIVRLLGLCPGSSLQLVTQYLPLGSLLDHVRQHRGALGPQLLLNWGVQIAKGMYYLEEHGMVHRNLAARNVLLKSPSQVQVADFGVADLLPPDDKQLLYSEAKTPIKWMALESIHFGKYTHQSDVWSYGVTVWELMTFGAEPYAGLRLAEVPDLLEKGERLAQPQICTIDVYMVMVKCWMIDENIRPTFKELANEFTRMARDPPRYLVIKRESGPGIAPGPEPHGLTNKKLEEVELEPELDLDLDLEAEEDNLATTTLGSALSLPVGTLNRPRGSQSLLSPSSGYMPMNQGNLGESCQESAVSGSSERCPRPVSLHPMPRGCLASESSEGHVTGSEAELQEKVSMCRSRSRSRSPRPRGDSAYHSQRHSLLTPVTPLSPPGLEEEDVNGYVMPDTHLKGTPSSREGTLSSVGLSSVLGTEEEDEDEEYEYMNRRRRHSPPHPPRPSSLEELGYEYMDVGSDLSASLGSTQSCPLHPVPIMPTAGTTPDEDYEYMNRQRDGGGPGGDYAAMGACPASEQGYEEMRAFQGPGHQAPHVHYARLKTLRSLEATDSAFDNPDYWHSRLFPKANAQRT

Human HER3 receptor [6] = biological target: T4, Human HER3 receptor; assay: cell-based or functional assay; remark: listed apart in the source
[7] = biological target: T2, Full-length human HER3 extracellular …; assay: DELFIA (europium time-resolved fluorescence), plate coated with HER3 ECD Full Length 1ug/ml, antibody titrated 0.001-10 ug/ml; remark: listed apart in the source
Human HER3 ECD domain II [8] = biological target: T1, Human HER3 ECD domain II; assay: DELFIA, plate coated with HER3 Domain II 1ug/ml; remark: listed apart in the source
[9] = biological target: T5, Murine HER3 on B16 and B16F10 melanoma cells (murine, UniProt Q61526 20-1339); assay: flow cytometry on B16F10 murine melanoma cells, antibody labelled with a Zenon APC kit [a]
T5 construct: whole, on cells
T5 sequence (Q61526 20-1339, one chain of several): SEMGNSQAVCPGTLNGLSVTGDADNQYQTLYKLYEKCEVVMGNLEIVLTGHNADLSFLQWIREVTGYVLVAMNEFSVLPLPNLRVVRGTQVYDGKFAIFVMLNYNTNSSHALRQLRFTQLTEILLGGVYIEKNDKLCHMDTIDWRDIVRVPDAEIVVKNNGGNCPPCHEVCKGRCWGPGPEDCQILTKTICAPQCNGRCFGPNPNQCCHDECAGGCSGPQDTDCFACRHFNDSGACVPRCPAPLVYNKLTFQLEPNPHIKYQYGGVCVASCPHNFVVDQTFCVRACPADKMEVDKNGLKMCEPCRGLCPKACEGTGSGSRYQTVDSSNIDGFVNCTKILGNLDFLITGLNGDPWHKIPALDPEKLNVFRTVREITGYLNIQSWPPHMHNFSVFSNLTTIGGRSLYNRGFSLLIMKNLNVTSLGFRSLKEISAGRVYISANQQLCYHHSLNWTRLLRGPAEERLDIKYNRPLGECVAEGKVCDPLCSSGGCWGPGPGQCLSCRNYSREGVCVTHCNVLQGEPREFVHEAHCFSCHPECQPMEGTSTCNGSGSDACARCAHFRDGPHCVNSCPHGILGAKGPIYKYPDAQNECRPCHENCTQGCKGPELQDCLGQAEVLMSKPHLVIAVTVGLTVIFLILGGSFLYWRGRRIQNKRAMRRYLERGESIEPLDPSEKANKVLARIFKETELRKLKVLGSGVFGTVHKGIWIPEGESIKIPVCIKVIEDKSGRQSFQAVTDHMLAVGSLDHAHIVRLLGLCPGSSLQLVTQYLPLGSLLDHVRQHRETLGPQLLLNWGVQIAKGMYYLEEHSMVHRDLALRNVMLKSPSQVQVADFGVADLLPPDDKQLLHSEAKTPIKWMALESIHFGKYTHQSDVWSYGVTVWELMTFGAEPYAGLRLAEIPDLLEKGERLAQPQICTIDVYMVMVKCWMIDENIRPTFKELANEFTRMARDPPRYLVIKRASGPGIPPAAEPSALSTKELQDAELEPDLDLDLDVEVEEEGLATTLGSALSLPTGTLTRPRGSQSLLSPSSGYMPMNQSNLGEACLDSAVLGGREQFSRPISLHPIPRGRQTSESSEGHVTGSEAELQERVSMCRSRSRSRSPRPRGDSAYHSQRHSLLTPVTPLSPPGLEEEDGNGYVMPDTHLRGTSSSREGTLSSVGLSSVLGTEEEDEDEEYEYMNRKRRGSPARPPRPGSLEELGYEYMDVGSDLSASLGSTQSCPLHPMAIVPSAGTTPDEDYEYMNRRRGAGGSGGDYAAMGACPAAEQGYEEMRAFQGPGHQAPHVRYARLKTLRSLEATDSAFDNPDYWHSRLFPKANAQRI
From the text: B16F10 ZENON™ labeling kits: [0530] Mouse IgG1 PE—Invitrogen Z25021 [0531] Mouse IgG1 APC—Invitrogen Z25051 [0532] Mouse IgG2b APC—Invitrogen Z25151 Method: Commercially available anti-human EGFR and HER2 antibodies were provided. A commercially available HER3 antibody represented by the provider to recognizes human HER3 was provided. The murine 15D5 antibody, murine 1D9 antibody (M5.1D9.1F5), murine 24H5 antibody (M5.24H5.C2) antibodies were also provided. These antibodies were labeled with either PE or APC using the ZENON™ labeling kits (Invitrogen). 5×10⁶ B 16, or B16F10, murine melanoma cells were added to flow cytometry tubes containing the labeled anti-HER3 antibodies. Cells and antibodies were incubated for 30 minutes on ice in the dark, washed and resuspended in FACS buffer. Cells were then analyzed on a FACSCANTO™ flow cytometer. Data analysis was performed using […]™ software, developed by BD Biosciences. Cell populations were gated using forward vs. side scatter and histograms of fluorescent intensities were generated.

Human HER3 receptor [10] = biological target: T4, Human HER3 receptor; assay: cell-based or functional assay; remark: listed apart in the source
Human HER3 receptor [11] = biological target: T4, Human HER3 receptor; assay: cell-based or functional assay; remark: listed apart in the source
[12] = biological target: T6, Human HER3 ECD domain III (human, UniProt P21860 330-495); assay: affinity summary table, method not given
T6 construct: also called D3; Domain 3
T6 sequence (P21860 330-495): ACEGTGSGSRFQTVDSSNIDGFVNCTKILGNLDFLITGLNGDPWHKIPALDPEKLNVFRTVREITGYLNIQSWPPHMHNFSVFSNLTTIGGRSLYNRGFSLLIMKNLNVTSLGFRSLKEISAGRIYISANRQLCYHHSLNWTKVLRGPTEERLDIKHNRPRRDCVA

[13] = biological target: T2, Full-length human HER3 extracellular …; assay: affinity summary table, method not given
[14] = biological target: T7, Human HER3 ECD domain 2-3 protein (human, UniProt P21860 184-495); assay: BIACORE 2000 SPR, mAb captured, HER3 protein as analyte, 25 C
T7 construct: also called D2-3; sub-domains 2-3
T7 sequence (P21860 184-495): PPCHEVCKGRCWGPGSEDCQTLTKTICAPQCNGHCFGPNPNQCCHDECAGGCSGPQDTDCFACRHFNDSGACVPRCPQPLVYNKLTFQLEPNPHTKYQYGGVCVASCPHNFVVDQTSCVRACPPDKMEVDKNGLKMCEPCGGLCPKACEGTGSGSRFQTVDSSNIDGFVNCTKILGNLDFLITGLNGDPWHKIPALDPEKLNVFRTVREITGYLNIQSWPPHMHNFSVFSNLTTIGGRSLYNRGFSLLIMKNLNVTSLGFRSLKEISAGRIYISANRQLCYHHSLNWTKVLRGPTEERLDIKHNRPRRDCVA
Protocol: (§3) Mouse monoclonal antibodies were analysed using rabbit anti-mouse (RAM) IgG (GE Healthcare BR-1008-38) covalently coupled to a BIACORE™ CM5 chip (GE HEalthcare BR-1000-14) by primary amine chemistry (NHS/EDC activated) (GE Healthcare amine coupling kit BR-1000-50). Chimeric and humanized competitor monoclonal antibodies were analyzed using anti-human, Fc specific monoclonal (GE Healthcare BR-1008-39) similarly coupled. Each chip was also prepared with a reference surface to which no capture reagent antibody is coupled. Sensorgrams for cycles run with differing analyte concentrations are acquired for kinetic analysis. A cycle consists of capturing the monoclonal on the surface, a short stabilization period with flowing run buffer followed by binding of a defined concentration of analyte (ECD or sub-domain protein). Injection of analyte for surface binding (3-4 minutes) yields the association part of curve. This is followed by buffer only flow (3-4 minutes) which allows recording of dissociation data.
(§4) The general method for affinity analysis is as follows. First, chips were prepared and tested for reasonance units (RU) captured for several monoclonal antibody concentrations. Kinetic cycles were then run in which monoclonal antibody was captured to a level of approximately 100RU, analyte protein was allowed to bind then dissociate and the surface was regenerated to remove all but covalently coupled protein. RAM chips were regenerated with capture kit supplied 100 mM glycine pH1.7 and anti-human chips with capture kit supplied 3M MgCl₂. […] Several buffer cycles were run prior to analyte protein to ensure cycle consistency and in some experiments a buffer cycle is used a “double reference[.]” Analytes used were human full length HER3 extra cellular domain (ECD), separate sub-domains of the extracellular portion of human HER3 (D1, D2, D3, D4), or combination HER3 domain proteins (D1-2 and D2-3).

[15] = biological target: T6, Human HER3 ECD domain III; assay: as above
Protocol: as §3, §4

[16] = biological target: T2, Full-length human HER3 extracellular …; assay: as above
Protocol: as §3, §4

T1 sequence (P21860 184-329): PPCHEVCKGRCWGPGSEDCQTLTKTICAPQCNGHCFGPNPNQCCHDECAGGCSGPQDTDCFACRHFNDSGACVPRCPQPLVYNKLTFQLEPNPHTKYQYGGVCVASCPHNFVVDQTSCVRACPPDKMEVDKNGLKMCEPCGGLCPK

B1: Humanized 1D9 POTELLIGENT™ antibody (antibody, human IgG1, kappa)
heavy: not shown
light: DIQMTQSPSSLSASVGDRVTITCRSSQSIVHSSGNTYLQWFQQKPGKAPKLLIYKVSNRFSGVPSRFSGSGSGTDFTLTISSLQPEDFAVYYCFQGSHVPWTFGQGTKLEIKRTVAAPSVFIFPPSDEQLKSGTASVVCLLNNFYPREAKVQWKVDNALQSGNSQESVTEQDSKDSTYSLSSTLTLSKADYEKHKVYACEVTHQGLSSPVTKSFNRGEC
modifications: non-fucosylated glycans on the marked N* residue
notes: Same chains as the humanized 1D9 antibody, expressed in FUT8- cells; also called humanized 1D9 H6L2 POTELLIGENT antibody
For B1, the binding result (Human HER3 ECD domain II [1]) was “no binding (tested: 10 ug/ml)”, the “EC50 (read off the curve)” value [2] was roughly 0.03 µg/mL and the Kd [3] was 3.37 nM. It also gave a koff [3] of 0.0011 s⁻¹, a kon [3] of 326000 M⁻¹ s⁻¹ and a Kd [4] of 2.01 nM. For the same binder, the koff [4] was 0.00223 s⁻¹, the kon [4] was 1.11e+06 M⁻¹ s⁻¹ and the “Phospho-HER3 ELISA IC50, heregulin induced, BxPC3 cells” value (shortened to “Phospho-HER3 ELISA IC50 … BxPC3 cells”) (Human HER3 receptor [5]) was 0.0056 µg/mL. For the same binder, the “Phospho-HER3 ELISA IC50, heregulin induced, CHL-1 cells” value (shortened to “Phospho-HER3 ELISA IC50 … CHL-1 cells”) (Human HER3 receptor [5]) was 0.0282 µg/mL, the “Phospho-HER3 ELISA IC50, heregulin induced, N87 cells” value (shortened to “Phospho-HER3 ELISA IC50 … N87 cells”) (Human HER3 receptor [5]) was 0.0175 µg/mL and the “Phospho-HER3 ELISA IC50, heregulin induced, SK-BR-3 cells” value (Human HER3 receptor [5]) was 0.0034 µg/mL. For the same binder, the “Phospho-AKT ELISA IC50, heregulin induced, BxPC3 cells” value (“Phospho-AKT ELISA IC50” for short) (Human HER3 receptor [6]) was 0.0228 µg/mL.

B2: Humanized 1D9 antibody (antibody, human IgG1, kappa)
heavy: not shown
light: DIQMTQSPSSLSASVGDRVTITCRSSQSIVHSSGNTYLQWFQQKPGKAPKLLIYKVSNRFSGVPSRFSGSGSGTDFTLTISSLQPEDFAVYYCFQGSHVPWTFGQGTKLEIKRTVAAPSVFIFPPSDEQLKSGTASVVCLLNNFYPREAKVQWKVDNALQSGNSQESVTEQDSKDSTYSLSSTLTLSKADYEKHKVYACEVTHQGLSSPVTKSFNRGEC
notes: Expressed in FUT8+ cells; also called HZ1D9; H6L2
Binder B2 has a Kd [4] of 4.5 nM, a koff [4] of 0.00184 s⁻¹ and a kon [4] of 410000 M⁻¹ s⁻¹. For the same binder, the “Phospho-HER3 ELISA IC50 … BxPC3 cells” value (Human HER3 receptor [5]) was 0.0116 µg/mL, the “Phospho-HER3 ELISA IC50 … CHL-1 cells” value (Human HER3 receptor [5]) was 0.0365 µg/mL and the “Phospho-HER3 ELISA IC50 … N87 cells” value (Human HER3 receptor [5]) was 0.0218 µg/mL. The “Phospho-HER3 ELISA IC50, heregulin induced, SK-BR-3 cells” value (Human HER3 receptor [5]) was 0.0036 µg/mL, the “EC50 (read off the curve)” value [7] was roughly 0.04 µg/mL and the “Phospho-AKT ELISA IC50” value (Human HER3 receptor [6]) was 0.0244 µg/mL. B2: no binding (tested: 10 ug/ml) (Human HER3 ECD domain II [8]).

B3: Murine 1D9 antibody (M5.1D9.1F5) (antibody, IgG2b, V domains shown)
VH: QVQLQQPGAELVRPGTSVKLSCKASGYTFTSYWMHWVKQRPGQGLEWIGVIDPSDGYSHYNQKFKGKATLTVDTSSSTAYMQLSSLTSEDSAVYYCAGGLAGTLDYWGQGTTLTVSS
VL: DVLMTQTPLSLPVSLGDQASISCRSSQSIVHSSGNTYLQWFLQKPGQSPKLLISKVSNRFSGVPDRFSGSGSGTDFTLRISRVEAEDLGLYYCFQGSHVPWTFGGGTKLEIK
notes: Mouse monoclonal, IgG2b; also called m1D9
In the case of B3, the binding result (Human HER3 ECD domain II [1]) is reported as “no binding (tested: 10 ug/ml)”, the binding result [9] is reported as “binds” and the “Phospho-HER3 ELISA IC50, betacellulin induced, SK-BR-3 cells” value (Human HER3 receptor [10]) is reported as 0.0036 µg/mL. For the same binder, the “Phospho-HER3 ELISA IC50, epidermal growth factor induced, SK-BR-3 cells” value (Human HER3 receptor [10]) was 0.003 µg/mL, the “Phospho-HER3 ELISA IC50, heregulin induced, SK-BR-3 cells” value (Human HER3 receptor [10]) was 0.0032 µg/mL and the “Phospho-HER3 … IC50, heregulin induced, CHO EGFR + HER3” value (Human HER3 receptor [11]) was 0.0435 µg/mL. For the same binder, the “Phospho-HER3 … IC50, heregulin induced, CHO HER4 + HER3” value (Human HER3 receptor [11]) was 0.13 µg/mL, the Kd [12] was 0.39 nM and the Kd [13] was roughly 1 nM. The Kd [14] was 0.47 nM, the kon [14] was 893000 M⁻¹ s⁻¹ and the Kd [15] was 0.38 nM. For the same binder, the kon [15] was 2.54e+06 M⁻¹ s⁻¹, the Kd [16] was 0.82 nM and the kon [16] was 355000 M⁻¹ s⁻¹. For the same binder, the “Phospho-HER3 ELISA IC50, heregulin induced, BT-474 cells” value (Human HER3 receptor [5]) was 0.0223 µg/mL, the “Phospho-HER3 ELISA IC50 … BxPC3 cells” value (Human HER3 receptor [5]) was 0.0068 µg/mL and the “Phospho-HER3 ELISA IC50 … CHL-1 cells” value (Human HER3 receptor [5]) was 0.0406 µg/mL. For the same binder, the “Phospho-HER3 ELISA IC50, heregulin induced, MCF7 cells” value (Human HER3 receptor [5]) was 0.0104 µg/mL, the “Phospho-HER3 ELISA IC50 … N87 cells” value (Human HER3 receptor [5]) was 0.0204 µg/mL and the “Phospho-HER3 ELISA IC50, heregulin induced, SK-BR-3 cells” value (Human HER3 receptor [5]) was 0.0032 µg/mL. The “Phospho-AKT ELISA IC50” value (Human HER3 receptor [6]) was 0.0151 µg/mL.
